Our source for the EC50 values is US20240294640A1 (published 2024).

Where two headings read alike, the source gives them in different places.

Assay [1] has as its target T1, CD3 naturally expressed on Jurkat cells (human, UniProt P07766 23-207). As to the kind of experiment: FACS. A general note: In flow cytometry, cells or beads pass a laser one at a time.
Assay [2] addresses T1, CD3 naturally expressed on Jurkat cells. As to the kind of experiment: FACS. This is another data set of the same source.

T1 sequence (P07766 23-207): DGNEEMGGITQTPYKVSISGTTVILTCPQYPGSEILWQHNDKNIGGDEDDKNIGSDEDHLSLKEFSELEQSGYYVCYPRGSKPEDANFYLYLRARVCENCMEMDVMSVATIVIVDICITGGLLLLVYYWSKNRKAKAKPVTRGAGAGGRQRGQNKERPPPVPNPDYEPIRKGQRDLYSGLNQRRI

B1: QP374437481461 (antibody)
chain 1: not shown
chain 2: MEFGLSWLFLVAILKGVQCQVQLVQSGAEVKKPGASVKVSCKASGYTFTSYIMHWVRQAPGQGLEWMGYINPYNDGTKYNEKFKGRVTMTRDTSTSTVYMELSSLRSEDTAVYYCARLGFTTRNAMDYWGQGTLVTVSSASTKGPSVFPLAPSSKSTSGGTAALGCLVKDYFPEPVTVSWNSGALTSGVHTFPAVLQSSGLYSLSSVVTVPSSSLGTQTYICNVNHKPSNTKVDKKVEPKSCESKYGPPCPPCPAPEFLGGPSVFLFPPKPKDTLMISRTPEVTCVVVDVSQEDPEVQFNWYVDGVEVHNAKTKPREEQFNSTYRVVSVLTVLHQDWLNGKEYKCKVSNKGLPSSIEKTISKAKGQPREPQVYTLPPSQEEMTKNQVSLSCAVKGFYPSDIAVEWESNGQPENNYKTTPPVLDSDGSFFLVSRLTVDKSRWQEGNVFSCSVMHEALHNHYTQKSLSLSLGGSSDYKDDDDK
chain 3: not shown
As usually defined, the EC50 is the midpoint of the concentration-response curve. Read a low EC50 as an effect from little substance. As to B1, a half-maximal response in assay [1] (EC50) required 133 nM.

B2: QP090837493746 (bispecific antibody)
chain 1: not shown
chain 2: not shown
chain 3: QVQLVQSGAEVKKPGASVKVSCKASGYTFTSYIMHWVRQAPGQGLEWMGYINPYNDGTKYNEKFKGRVTMTRDTSTSTVYMELSSLRSEDTAVYYCARLGFTTRNAMDYWGQGTLVTVSSASTKGPSVFPLAPSSKSTSGGTAALGCLVKDYFPEPVTVSWNSGALTSGVHTFPAVLQSSGLYSLSSVVTVPSSSLGTQTYICNVNHKPSNTKVDKKVEPKSC
In assay [2], B2 gave an EC50 of 64.3 nM.

B3: QP090937493746 (bispecific antibody)
chain 1: not shown
chain 2: not shown
chain 3: QVQLVQSGAEVKKPGASVKVSCKASGYTFTSYIMHWVRQAPGQGLEWMGYINPYNDGTKYNEKFKGRVTMTRDTSTSTVYMELSSLRSEDTAVYYCARLGFTTRNAMDYWGQGTLVTVSSASTKGPSVFPLAPSSKSTSGGTAALGCLVKDYFPEPVTVSWNSGALTSGVHTFPAVLQSSGLYSLSSVVTVPSSSLGTQTYICNVNHKPSNTKVDKKVEPKSC
The molecule B3 gave an EC50 in assay [2] of 21.9 nM. Against the preceding molecule, the EC50 is about 2.9-fold lower.

B4: QP091037493746 (bispecific antibody)
chain 1: not shown
chain 2: not shown
chain 3: QVQLVQSGAEVKKPGASVKVSCKASGYTFTSYIMHWVRQAPGQGLEWMGYINPYNDGTKYNEKFKGRVTMTRDTSTSTVYMELSSLRSEDTAVYYCARLGFTTRNAMDYWGQGTLVTVSSASTKGPSVFPLAPSSKSTSGGTAALGCLVKDYFPEPVTVSWNSGALTSGVHTFPAVLQSSGLYSLSSVVTVPSSSLGTQTYICNVNHKPSNTKVDKKVEPKSC
For B4, in assay [2], the EC50 is 34 nM. Against the preceding molecule, the EC50 is about 1.6-fold higher.

B5: QP372337241461 (antibody)
chain 1: MEFGLSWLFLVAILKGVQCQVQLVQSGAEVKKPGASVKVSCKASGYTFTSYIMHWVRQAPGQGLEWMGYINPYNDGTKYNEKFKGRVTMTRDTSTSTVYMELSSLRSEDTAVYYCARLGFTTRNAMDYWGQGTLVTVSSASTKGPSVFPLAPSSKSTSGGTAALGCLVKDYFPEPVTVSWNSGALTSGVHTFPAVLQSSGLYSLSSVVTVPSSSLGTQTYICNVNHKPSNTKVDKKVEPKSCGGGGSGGGGSGGGGSEVQLLESGGGLVQPGGSLKLSCAASGFTFNTYAMNWVRQAPGKGLEWVARIRSKYNNYATYYADSVKDRFTISRDDSKNTAYLQMNNLKTEDTAVYYCVRHGNFGNSYVSWFAYWGQGTLVTVSSGGGGSGGGGSGGGGSESKYGPPCPPCPAPEFLGGPSVFLFPPKPKDTLMISRTPEVTCVVVDVSQEDPEVQFNWYVDGVEVHNAKTKPREEQFNSTYRVVSVLTVLHQDWLNGKEYKCKVSNKGLPSSIEKTISKAKGQPREPQVYTLPPSQEEMTKNQVSLSCAVKGFYPSDIAVEWESNGQPENNYKTTPPVLDSDGSFFLVSRLTVDKSRWQEGNVFSCSVMHEALHNHYTQKSLSLSLGGSSDYKDDDDK
chain 2: not shown
chain 3: not shown
Molecule B5 came in with an EC50 in assay [1] of 172 nM.
